From PMC10403730, “PABPN1 aggregation is driven by Ala expansion and poly(A)-RNA binding, leading to CFIm25 sequestration that impairs alternative polyadenylation”

Biological target: T1, EGFP-PABPN1-10A-ΔCT (Homo sapiens, UniProt Q86U42 1-254)
T1 sequence: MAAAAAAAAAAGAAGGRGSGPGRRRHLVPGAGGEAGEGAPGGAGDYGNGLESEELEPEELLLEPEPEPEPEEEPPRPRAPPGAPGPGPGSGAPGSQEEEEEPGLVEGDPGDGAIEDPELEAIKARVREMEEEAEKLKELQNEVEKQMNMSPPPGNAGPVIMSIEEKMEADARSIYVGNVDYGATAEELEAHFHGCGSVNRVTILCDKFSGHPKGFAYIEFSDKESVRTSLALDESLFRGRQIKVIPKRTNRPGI
Experiment: EMSA; 2 nM dA50, 0-5 uM protein; 50 mM Tris-HCl, 150 mM NaCl, 2 mM MgCl2, pH 7.5, 30 min at room temperature; 6% native gel
Details: protein: recombinant; tags: N-terminal EGFP, C-terminal His; label: 5'-Cy5; single-stranded

AAAAAAAAAAAAAAAAAAAAAAAAAAAAAAAAAAAAAAAAAAAAAAAAAA (ssDNA) [Cy5-dA50]
binding result: binds
